Here are results for five molecules from doi:10.1101/2021.10.18.464838, “Two distinct classes of co-chaperones compete for the EEVD motif in heat shock protein 70 (Hsp70) to tune its activity” (bioRxiv, 2021).

A word on the Kd: it is the equilibrium constant for the complex coming apart.

The labels stand for the following.
B4: Hsp72 phosphomimetic T636E tracer FITC-Ahx-GSGPEIEEVD (peptide)
peptide: GSGPEIEEVD-OH
modifications: not fully specified (N-terminus); printed as FITC-Ahx-GSGPEIEEVD
notes: last 10 residues of Hsp72/HSPA1A with the P6 Thr changed to Glu; also called T636E Hsp72 fluorescent tracer; P6 Thr to Glu; source: synthetic peptide, bought: GenScript

What all share (conditions): both partners purified
Experiment [1] has as its target T1, DnaJB4 (recombinant, human, full length, wild type) (human, UniProt Q9UDY4 1-337).
T1 construct: DnaJB4, human, full length; Expressed from pMCSG7 with a TEV site; also called WT DnaJB4; Class B JDP; source: E. coli BL21 (DE3) Rosetta, purified (Ni-NTA, TEV cleavage, SEC); not shown: His6, N-terminal, cleaved
Put plainly: fluorescence polarisation; competition: 100 µM unlabeled peptide, 5 µM DnaJB4, 20 nM Hsp72 tracer in JDP binding buffer; room temperature, 30 min; tracer displacement relative to DMSO control. On the technique in general: Polarisation of emitted light reports the rotation of a fluorescent probe.

Experiment [2] addresses T1, DnaJB4 (recombinant, human, full …). As to the kind of experiment: fluorescence polarisation; saturation binding: 20 nM Hsp72 tracer with DnaJB4 (WT or QPD) 110 to 0.013 µM in 2X dilutions; 50 mM Tris, 15 mM NaCl, 1 mM DTT, 0.01% Triton X-100, pH 8.0; room temperature, 30 min.
Experiment [3] addresses B4. Put plainly: fluorescence polarisation; saturation binding: 20 nM Hsp72 tracer with CHIP 110 to 0.013 µM in 2X dilutions; 50 mM HEPES, 50 mM KCl, 0.01% Triton X-100, pH 7.4; room temperature, 30 min.

Several values for one entry are separate records, joined by “and”; a condition that tells them apart may be missing. Equal entries are not always repeated. Where no end group is shown, it is not given here. The star is where a group is joined. FITC = O=C1OC2(c3ccc(O)cc3Oc3cc(O)ccc32)c2ccc(NC(=S)*)cc21; Ahx = NCCCCCC(=O)O

T1 sequence (Q9UDY4 whole entry): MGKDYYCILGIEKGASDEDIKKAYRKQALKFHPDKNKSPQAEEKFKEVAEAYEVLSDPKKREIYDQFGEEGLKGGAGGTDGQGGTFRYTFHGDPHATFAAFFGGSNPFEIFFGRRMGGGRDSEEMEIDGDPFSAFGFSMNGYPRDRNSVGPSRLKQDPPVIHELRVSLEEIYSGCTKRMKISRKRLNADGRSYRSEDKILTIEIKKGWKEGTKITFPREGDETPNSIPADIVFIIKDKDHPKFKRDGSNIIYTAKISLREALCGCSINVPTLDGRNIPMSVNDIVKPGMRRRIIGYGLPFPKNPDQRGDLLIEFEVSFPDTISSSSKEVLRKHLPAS

B1: Hsp72 10-mer peptide with the P5 Ile replaced by Met (peptide, UniProt P0DMV8 632-641, looked up)
peptide: Ac-GSGPTMEEVD-OH
notes: also called P5 Ile to Met mutant; source: synthetic peptide, bought: GenScript
With B1, in experiment [1], the binding result is recorded as “binds”.

B2: Hsp72 C-terminal 7-mer peptide PTIEEVD (peptide)
peptide: Ac-PTIEEVD-OH
notes: last 7 residues of Hsp72/HSPA1A; also called last 7 amino acids of Hsp70's C-terminus; source: synthetic peptide, bought: GenScript
On to B2, for which, in experiment [1], the binding result was “binds”.

B3: Hsp72 tracer FITC-Ahx-GSGPTIEEVD (peptide)
peptide: {FITC-Ahx}-GSGPTIEEVD-OH
modifications: not fully specified; printed as FITC-Ahx-GSGPTIEEVD
notes: last 10 residues of Hsp72/HSPA1A; also called EEVD tracer; fluorescent Hsp72 peptide; source: synthetic peptide, bought: GenScript
B3: the Kd in experiment [2] is 1910 nM and 1690 nM.
In the case of B4, the binding result in experiment [2] was “binds”.

B5: CHIP (recombinant human) (natural protein, UniProt Q9UNE7 1-303, looked up)
chain: MKGKEEKEGGARLGAGGGSPEKSPSAQELKEQGNRLFVGRKYPEAAACYGRAITRNPLVAVYYTNRALCYLKMQQHEQALADCRRALELDGQSVKAHFFLGQCQLEMESYDEAIANLQRAYSLAKEQRLNFGDDIPSALRIAKKKRWNSIEERRIHQESELHSYLSRLIAAERERELEECQRNHEGDEDDSHVRAQQACIEAKHDKYMADMDELFSQVDEKRKKRDIPDYLCGKISFELMREPCITPSGITYDRKDIEEHLQRVGHFDPVTRSPLTQEQLIPNLAMKEVIDAFISENGWVEDY
notes: CHIP, human; also called E3 ubiquitin ligase CHIP; TPR domain co-chaperone; source: E. coli BL21(DE3), purified (Ni-NTA, TEV cleavage, SEC); not shown: His6, N-terminal, cleaved
In the case of B5, in experiment [3], the “fold weakening of the affinity against the WT tracer” value stood at 5 fold.
